These results are taken from patent publication US20210238275A1 (published 2021).

First the molecules themselves.
B1: N026 (antibody)
heavy: not shown
light: QSALTQPASVSGSPGQSITISCTGTGSDVGSYNLVSWYQQHPGKAPKLMIYGDSERPSGVSNRFSGSKSGNTASLTISGLQAEDEADYYCSSYAGSGIYVFGTGTKVTVLGQPKAAPSVTLFPPSSEELQANKATLVCLISDFYPGAVTVAWKADSSPVKAGVETTTPSKQSNNKYAASSYLSLTPEQWKSHKSYSCQVTHEGSTVEKTVAPTECS
B2: N024 (antibody)
heavy: not shown
light: B1 light
B3: N023 (antibody)
heavy: not shown
light: B1 light
B4: N027 (antibody)
heavy: not shown
light: B1 light
B5: N022 (antibody)
heavy: not shown
light: B1 light

The target in this assay is cell surface, glycophosphatidylinositol (GPI)-linked human FcRn on HEK 293 cells (human, UniProt P55899 24-297, C-terminal engineered GPI linkage). Briefly: IgG competition on 293 cell surface; pH 6.0.
Consider B1, for which the EC50 stood at 3.24 nM.

As for B2, the EC50 was determined as 2.48 nM. The EC50 values of the last two molecules are within 1.5-fold of each other.

On to B3, for which a half-maximal response (EC50) required 2.48 nM.

For B4, a half-maximal effect (EC50) was put at 3.25 nM. This EC50 and that of the molecule before are within 1.5-fold of each other.

In turn, B5 returned an EC50 of 2.93 nM. The EC50 values of the last two molecules are within 1.5-fold of each other.

What is called EC50 is the concentration that produces a half-maximal response. The low end stands for greater potency, the high end for weaker potency.
